This is an account of results in publication PMC8063757, “The DNA-binding protein HU is a molecular glue that attaches bacteria to extracellular DNA in biofilms” (The Journal of Biological Chemistry, 2020).

Data set [1] concerns the molecule itself. The data set is described as follows: cross-linking; glutaraldehyde added to HU-B or its variant alone (no f-LPS); 15% SDS-PAGE, Coomassie Blue G-250 staining.
Data set [2] deals with the molecule itself. The experiment in a line: SEC; Superdex-75 10/300GL on an AKTA Purifier-10; elution at ~12 ml, corresponding to ~25 kDa. In general terms: In gel filtration, larger molecules generally elute earlier.
The target of data set [3] is HU-A K83A (Escherichia coli K-12, UniProt P0ACF0 1-90, K83A). The data set is described as follows: EMSA; EMSA on 0.7% or 1% agarose gels, EtBr stain; binding buffer, salt, pH and temperature not stated. Particulars: protein: recombinant; chain copies: 2; label: none (EtBr stain); four-way junction of 4 strands, equimolar, one copy each; strands as printed are not perfectly complementary. For orientation: In EMSA bound probe runs differently from free probe, usually more slowly.

For data set [4], the target named is T1, F47W HU-B (Escherichia coli K-12, UniProt P0ACF4 1-90, F47W).
T1 sequence: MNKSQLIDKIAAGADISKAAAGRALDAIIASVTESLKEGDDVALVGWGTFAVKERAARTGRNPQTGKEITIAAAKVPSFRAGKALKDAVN
The description is as above. Particulars: protein: recombinant; chain copies: 2; label: none (EtBr stain); four-way junction of 4 strands, equimolar, one copy each; strands as printed are not perfectly complementary.

Data set [5] concerns the target T2, LoodLysrHU-B (Escherichia coli K-12, UniProt P0ACF4 1-51+=SGGGGSGGGGS+75-90, K83A;K86A;internal_change).
T2 sequence: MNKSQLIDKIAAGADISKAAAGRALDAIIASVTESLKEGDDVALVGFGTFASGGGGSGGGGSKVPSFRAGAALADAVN
The data set is described as above. Particulars: protein: recombinant; chain copies: 2; label: none (EtBr stain); four-way junction of 4 strands, equimolar, one copy each; strands as printed are not perfectly complementary.

Data set [6] has as its target T3, LoodHU-B K86A (Escherichia coli K-12, UniProt P0ACF4 1-51+=SGGGGSGGGGS+75-90, K86A;internal_change).
T3 sequence: T2 sequence with A71K
Described as above. The conditions noted are these: protein: recombinant; chain copies: 2; label: none (EtBr stain); four-way junction of 4 strands, equimolar, one copy each; strands as printed are not perfectly complementary.

In data set [7] the target is T4, HU-B K86A (Escherichia coli K-12, UniProt P0ACF4 1-90, K86A).
T4 sequence: T1 sequence with W47F, K86A
The description is as above. Particulars: protein: recombinant; chain copies: 2; label: none (EtBr stain); four-way junction of 4 strands, equimolar, one copy each; strands as printed are not perfectly complementary.

Data set [8] addresses LoodHU-A K86A (Escherichia coli K-12, UniProt P0ACF0 1-51+=SGGGGSGGGGS+75-90, K86A;internal_change). The description is as above. Particulars: protein: recombinant; chain copies: 2; label: none (EtBr stain); four-way junction of 4 strands, equimolar, one copy each; strands as printed are not perfectly complementary.
For data set [9], the target named is T5, HU-B K83A (Escherichia coli K-12, UniProt P0ACF4 1-90, K83A).
T5 sequence: T1 sequence with W47F, K83A
The description is as above. The conditions noted are these: protein: recombinant; chain copies: 2; label: none (EtBr stain); four-way junction of 4 strands, equimolar, one copy each; strands as printed are not perfectly complementary.

For data set [10], the target named is HU-A K86A (Escherichia coli K-12, UniProt P0ACF0 1-90, K86A). Described as above. The conditions noted are these: protein: recombinant; chain copies: 2; label: none (EtBr stain); four-way junction of 4 strands, equimolar, one copy each; strands as printed are not perfectly complementary.
Data set [11] concerns the target T6, LoodHU-B K83A (Escherichia coli K-12, UniProt P0ACF4 1-51+=SGGGGSGGGGS+75-90, K83A;internal_change).
T6 sequence: T2 sequence with A74K
Described as above. Particulars: protein: recombinant; chain copies: 2; label: none (EtBr stain); four-way junction of 4 strands, equimolar, one copy each; strands as printed are not perfectly complementary.

Data set [12] concerns the target LoodLysrHU-A (Escherichia coli K-12, UniProt P0ACF0 1-51+=SGGGGSGGGGS+75-90, K83A;K86A;internal_change). Described as above. The conditions noted are these: protein: recombinant; chain copies: 2; label: none (EtBr stain); four-way junction of 4 strands, equimolar, one copy each; strands as printed are not perfectly complementary.
Data set [13] has as its target LoodHU-A K83A (Escherichia coli K-12, UniProt P0ACF0 1-51+=SGGGGSGGGGS+75-90, K83A;internal_change). The description is as above. The conditions noted are these: protein: recombinant; chain copies: 2; label: none (EtBr stain); four-way junction of 4 strands, equimolar, one copy each; strands as printed are not perfectly complementary.
Data set [14] concerns the target T7, LoodHU-B (Escherichia coli K-12, UniProt P0ACF4 1-51+=SGGGGSGGGGS+75-90, internal_change).
T7 sequence: T2 sequence with A71K, A74K
The description is as above. Particulars: protein: recombinant; chain copies: 2; label: none (EtBr stain); four-way junction of 4 strands, equimolar, one copy each; strands as printed are not perfectly complementary.

The target of data set [15] is T8, HU-B (Escherichia coli K-12, UniProt P0ACF4 1-90).
T8 sequence: T1 sequence with W47F
Described as above. The conditions noted are these: protein: recombinant; chain copies: 2; label: none (EtBr stain); four-way junction of 4 strands, equimolar, one copy each; strands as printed are not perfectly complementary.

The target of data set [16] is T9, LysrHU-B (Escherichia coli K-12, UniProt P0ACF4 1-90, K83A;K86A).
T9 sequence: T1 sequence with W47F, K83A, K86A
Described as above. Particulars: protein: recombinant; chain copies: 2; label: none (EtBr stain); four-way junction of 4 strands, equimolar, one copy each; strands as printed are not perfectly complementary.

Data set [17] addresses LysrHU-A (Escherichia coli K-12, UniProt P0ACF0 1-90, K83A;K86A). Described as above. Particulars: protein: recombinant; chain copies: 2; label: none (EtBr stain); four-way junction of 4 strands, equimolar, one copy each; strands as printed are not perfectly complementary.
Data set [18] concerns the target T10, F79W HU-B (Escherichia coli K-12, UniProt P0ACF4 1-90, F79W).
T10 sequence: T1 sequence with W47F, F79W
The description is as above. The conditions noted are these: protein: recombinant; chain copies: 2; label: none (EtBr stain); four-way junction of 4 strands, equimolar, one copy each; strands as printed are not perfectly complementary.

Numbering of substitutions follows the chain as printed. In names and notes the source's numbering stands. Several values for one entry are separate records, joined by “and”; a condition that tells them apart may be missing. Equal entries are not always repeated.

One may read the stoichiometry N as a count of units in the complex or per binding partner.

B1: HU-B WT (6xHis-tagged) (natural protein, E. coli K-12)
chain: T1 sequence with W47F
notes: HU-B, isoform of the nucleoid-associated histone-like protein HU of E. coli; gene PCR-amplified from E. coli K-12 genomic DNA; ~90 amino acids, ~9.2-kDa polypeptide; Cloned between BamHI and HindIII of pQE-30; also called WT HU; source: E. coli XL-1 Blue (pQE-30), purified (Ni-NTA, 2 M NaCl wash)
Consider B1, for which the “stoichiometry N” value in [1] was 2 and 4 and 3 and 6.

B2: LysrHU-B (lysine-replaced HU-B, K83A and K86A) (natural protein, E. coli K-12)
chain: T1 sequence with W47F, K83A, K86A
notes: source: E. coli XL-1 Blue (pQE-30), purified (Ni-NTA, 2 M NaCl wash)
On to B2, for which the “stoichiometry N” value in data set [1] amounted to 4; in [2], 2.

B3: 4WJ DNA (structured_DNA)
DNA 1: CCCTATAACCCCTGCATTGAATTCCTGTCTGATAA
DNA 2: GTAGTCGTGATAGGTGCAGGGGTTATAGGG
DNA 3: AACAGTAGCTCTTAATTCGAGCTCGCGCCCTATCACGACTA
DNA 4: TTTATCAGACTGGAATTCAAGCGCGAGCTCGAATAAGAGCTACTGT
In the case of B3, the binding result was “binds” in data set [3]; “binds” in data set [4]; “no binding” in [5]; “no binding” in data set [6]; “binds” in [7]; “no binding” in data set [8]. For the same molecule, the binding result is on record as “binds” in data set [9]; “binds” in data set [10]; “no binding” in data set [11]; “no binding” in [12]; “no binding” in [13]; “binds” in [14]. In addition, the binding result in data set [15], in [16], in data set [17] and in [18] was “binds” throughout.

B4: LoodLysrHU-B (loop-deleted and lysine-replaced HU-B) (natural protein, E. coli K-12)
chain: T2 sequence
notes: HU-B of E. coli K-12, the stretch before the deleted loop (residues 52 to 74 deleted); 11-residue glycine/serine-rich linker that replaces residues 52 to 74; HU-B of E. coli K-12, the stretch after the deleted loop, with K83A and K86A (numbers count on unchanged HU-B); Combines the LoodHU-B and LysrHU-B changes; source: E. coli XL-1 Blue (pQE-30), purified (Ni-NTA, 2 M NaCl wash)
On to B4, for which the “stoichiometry N” value stood at 4 in data set [1] and 2 in data set [2].

B5: LoodHU-B (loop-deleted HU-B) (natural protein, E. coli K-12)
chain: T2 sequence with A71K, A74K
notes: HU-B of E. coli K-12, the stretch before the deleted loop (residues 52 to 74 deleted); 11-residue glycine/serine-rich linker that replaces residues 52 to 74; HU-B of E. coli K-12, the stretch after the deleted loop (residues 52 to 74 deleted); The results call the loop 22 residues long, but residues 52 to 74 are 23 residues; source: E. coli XL-1 Blue (pQE-30), purified (Ni-NTA, 2 M NaCl wash)
With B5, the “stoichiometry N” value is 4 in data set [1] and 2 in [2].
